Assay results as given in the DeepSol protein solubility set.

test: soluble on expression in E. coli; label from the status in PepcDB or PDB records

Sequence | soluble on expression in E. coli
MSLMNKSQQVQTITLAAAQQMAAAVEKKATEINVAVVFSVVDRGGNTLLIQRMDEAFVSSCDISLNKAWSACSLKQGTHEITSAVQPGQSLYGLQLTNQQRIIIFGGGLPVIFNEQVIGAVGVSGGTVEQDQLLAQCALDCFSALEGGSHHHHHH | soluble
MSLMPRIKPLLVLCAALLTVTPAASADVNSDMNQFFNKLGFASNTTQPGVWQGQAAGYAYGGSLYARTQVKNVQLISMTLPDINAGCGGIDAYLGSFSFINGEQLQRFVKQIMSNAAGYFFDLALQTTVPEIKTAKDFLQKMASDINSMNLSSCQAAQGIIGGLFPRTQVSQQKVCQDIAGESNIFADWAASRQGCTVGGKSDSVRDKASDKDKERVTKNINIMWNALSKNRMFDGNKELKEFVMTLTGSLVFGPNGEITPLSARTTDRSIIRAMMEGGTAKIYHCNDSDKCLKVVADTPVTISRDNALKSQITKLLASIQNKAVSDTPLDDKEKGFISSTTIPVFKYLVDPQMLGVSNSMIYQLTDYIGYDILLQYIQELIQQARAMVATGNYDEAVIEHINDNMNDATRQIAAFQSQVQVQQDALLVVDRQMSYMRQQLSARMLSRYQNNYHFGGSTLEGHHHHHH | not soluble
MSLNARSYLEQQLTGQNANAANALALAITQSQADKAMAETLINATFDQGYFHHIRWQGADGKVRVDRVNEAVFPAAPGWFRALLPLSPQPGSALVTAGWMQAGEIRVEAALGYAYESLWRGALQTMLWLLGTGLLAGLLGSIDIFKLRRDLQRVVNQARAISEHRFQRMTEPKVPELARVVGAMNQMVERLQSFLGEQSEEVEQLRRERHTDPVTGLPNREALEQAVSSTLAEEDDVRGCLLLLRLAGLAELNQRLGGERADALLVRLAADLEDLAARRKGWMAARLRGADFAVFCPELDMDGGRQLAETLCEQLALYRQMGLSDRDGIGHIGVCGIVQGDGLASLLARASQALAEAEAAGDNQWRVDDGAGPDVGSEWDWRELIEAACREHSLRLRWFPVRDAARGILWQEGMLYRPPMDGLPAINAMRLVSHSLRLGLSHLADLEALRLALADAPGAALAVNLSPASLAARGFQWQVTEMLAGSRATVSFEFDEAGLDEHWAAFLAFGEAVKGAGHRLAVEIRGHRLELVARLNQAGIDYLVLDGALTRGIHRDEGRKVLVKGVQRMTSLMGARLIAKGVASEEDARLLLELRVDGLTGPAEGHHHHHH | not soluble
MSLNDDYPVVLAAPTGRASKRLQESTGLEAMTIHRLIGWNQDTKPEDILENEINARLIIIDEMSMVDTWLFHQFLSAVPLDAQLIFVGDEDQLPSVGPGQVFKDLIESKAIPRVNLTEVYRQQDGSSIIELAHRMKLGQKIDITQRFHDRSFINCQANQIPTVVEKVVTSAVNKGYTMADIQVLAPMYKGNAGIKRLNQVLQDILNPKKKDTREIEFGDVVFRKGDKVLQLVNRPNDNIFNGDIGVIVGIFWAKENALNKDVLVVDFEGNEITFTKQDMMELTHAYCTSIHKSQGSEFPIVIMPIVKQYFRMLQRPILYTGLTRAKTSLVLLGDPEAFDIGLKTNGQARLTQLCTLLKNYFNSEGHHHHHH | not soluble
MSLNDRNASKMLSTYNVAYWGGNYYDVNELGHISVCPDPDIREARVDLAQLVKKMQLEQGQRLPALFCFPQILQHRLRSINAAFKRARESFGYEGGYFLVYPIKVNQHRRVIESLVNSGEPLGLEAGSKAEMMAVLAHAGMTRSVIVCNGYKDREYIRLALIGEKLGHKVYLVIEKMSEIKMVLEEAERLNVVPRLGVRARLASQGSGKWQASGGEKSKFGLSATQVLQLVDMLREANSLESLQLLHFHLGSQLSNIRDISTGVRESARFYVELHKLGVNIQCFDVGGGLGVDYEGTRSQSDCSVNYGLNEYANNVIWGIGDACNEHGLPHPTVITESGRAVTAHHTVLVSNVIGVERNEFCEPQPPEAGAPRALESLWDTWQEMQEPENRRSLREWLHDSQMDLHDVHTQYAHGMLDLTHRAWAEQLYLSICNEIQKQLDPSNRAHRPIIDELQERMADKLYVNFSLFQSMPDAWGIDQLFPVLPLEGLDKPPERRAVLLDITCDSDGTIDHYIDGDGVATTMPMPPYDPENPPLLGFFMVGAYQEILGNMHNLFGDTAAVDVYVFPDGTVEVEQTDEGDTVADMLEYVQLNPEKLLEHFRGQVKETDLDTELQAQFLEEFEAGLYGYTYLEDEGHHHHHH | soluble
MSLNGPLKIGYYKIGAAYRDGKGYDVDMVRELARRLGCPIANETELPRLRALKMLETGQIDVSASTLATPDRLQYAWIYQYNHAKNMVLLNPAIQARTLATLLEDPALRWGAIRGYHHGPSQDKLLEELNARHKVVIANDEDDLYKMLGNGVVTAVFAQPFSYGRWLRELPNPNQIVVLDLYPETDMVASGLALSKARFSREAAEKWHQELLKMYQDGSLYDIMRRYLNEGHHHHHH | not soluble
MSLNIQAIDTRHGTANQHSFSNGNCLPYTGVPFGMNFYAPQTTDQKGSWWFHPEDRTFQGYRVTHQPSPWMGDFSHLLMTPVSGSLSELSLFHAQSSYRPEESLFSPVEINLTQLRYQITSQLIPSMYGGILTIDYQQKDNHLLLTLPGRYQVKQLDDHQVAVKVINYSGCEDPDFSFYFVLHFEQPLTKWFAPSSGEDGKILLSFGNIAQQVVHFSSSFISEKQAQLNLAREISLRSTEMLQQGIADWHNYFDRLKVTHENPEHTKTFYHTLYRTFLFPQTFYELDENQQPIHYDTFSQTVRPGVLYTNNGFWDTYKTVYPLFSLIAQEKYEEMLEGFLNSYNETGFLPKWLSPDERGLMPGTLIDAVIADAAVKKIRPDLMPQFLEAMKKGATQQSERENYGRQGTLDYLKYGYVPSTYHESVNHTLDYAYSDFCISQVAKTLNDSETATFYRQQALNYQQLFNPETGFMQAKDTEGNFRPDFLDIRWGKDYAEGSAWQSSFAVYQDFAGLIKLYGSELAFEKKLIQLCNQAPNFNVEGYGFEIHEMSEMAAIDFGQLAISNQPSFHYPFLFSYIGKPEMAQPLLKQLMQTFDASPTGYPGDEDNGSMSAWYIFNSLGFYPVTPGTGEYVIGMPLVQTAEVKLSNGKQLTIQTSPNKVQQQFIHEIQLNQEKHTAPYFTHQELLNGGTLDYQLGIVPNPQNTAERPFSLSTEKEGGSHHHHHH | soluble
MSLNKEPDPPLAESLRPQHIDEVIGQSHLLGEGKPLRLCFMGSKLHSMILWGPPGVGKTTIARLTAQAFDCEWIALSAVFSGVKDIRAAVEKAQEYLIHDKQTILFIDEIHRFNKAQQDALLPYTESGLITFIGATTENPSFEVNSALLSRAQVYVLKPLSEQELKLLFLRAHQRALSSLQFTEEAVDFLISCADGDARRLLNLLEQTKTACLTIKTAVVDVELLHNVIVQNSRRFDKGGEAFYDQISALHKSVRGSNPDAALYWLCRMLDGGVDPYYLARRIIRMSWEDIGLADPKAIQIANDAAATYERLGSPEGELALAQAVIYLSVAAKSNAGYVAFNQAMEFIKRDKSREVPIHLRNAPTQLMKKLGYGHEYRYAHDEPHGYAAGECYLPEGMPEVNWYNPVQRGLETKIAEKLAFLRQLDKDVKKEGHHHHHH | soluble
MSLNKKDVIRTLERIAIYMELKGENPFKISAYRKAALALEQDERTLDEIEDPATLKGIGKGTAEVILDLKETGESSLMHELKESVPAGLIPLLQLPSLGGKKIAKLYQELGVIDLATLKEACEQGNVRELAGFGKKSEEKILAAIAELSNKPERFPIAFVLPIAVEIEAQLKEMDSIHRFSRAGSLRRMRETVKDLDYIISTDDPEAVREQLLQLKHMGKTIASGDTKVSVELEYDYPISVDFRLVKDEAFATTLHHFTGSKEHNVKMRQLAKARGEKISEYGVENTETGDVKTFADESAFFKHFGLTYIPPEAREDQGEVELFKEAHALVTLEDIRADLHMHTTWSDGAHSIEEMAEAARQRGYEYIAITDHSKFLRVANGLSEERLKEQHAKIRELNERYDDFTIFTGIEMDILPDGTLDYEDPILAEVDFVIASIHSSFSQPREKIMDRLKTALVNHHVDLIAHPTGRLIGRREGYDVDVDMLIELAKETNTALELNANPNRLDLNSEALKKAQEQGVVMAINTDSHTKETFSYMEYGVGVARKGLIRPETVINTWPLERFCAFLRRHQPEGHHHHHH | soluble
MSLNKQDKKWRVLVVDDDADVLTNTVYTLMDLKVLGRELDITTLGSATAAIELLERERDFAVILLDVVMEKPHAGLSLVTMIRHDFNMQMSRIILRTGNPGYAPERDITLKLEIDDYILKQTAVRDRIITAVIVAIRAYDQLQRLARLKDAMQQIICCSNQLLTTDEIDQFANVCMQYVAPIFGKNAGGGLAYAGMTVNQGIVPLTVMSATSEHESLIEPLNGEGHHHHHH | not soluble
MSLNLPSFTLDIKLAGDGPAGVEKQIQQMQAMVDDRVDLIIVQPTDNAALSSPLQAANQAGIPVVAYDQYISGGHLSAFVTSNNYQAGFLDGEYMAHHFADDHTIQIILVEYPYVSSTIDRVDGFFDALNQYKQPYRILRSYQAVEPVQGRAVGQQILQDFPQPGSVDALFTINDGGGLAIVDELEKAGRHELFVATIDGDPNSVARIRKGSIIKIDSAQFCGPIGAEAMRAAYAILTAGKVHEHWLVPVFPITRQSVAHYPGWSGPIPEHYSNPCLTFLCREGHHHHHH | not soluble
MSLNPKILEKWMAEGQVTLPQVLVKNYATIGLNEVELVLLLQIQSFAAEAEFFPSMEMLTNRTTLPLEETIKTMDSLLKKGVIAIEQSQDNSRMISEQYNLAPLWGKLVALYENKEADSKHEKELEKQTSLYTLFEAEFGRPLSPMEAEMLSAWVEQDRTSPDLIKEALKEAVISQKLNFRYIDRILLNWSKQGVKTIEDAKRVAEEFHQNGRTSQAINQTEVKKSAGSIPLYDWLEKRKGEGHHHHHH | soluble
MSLNPNYLDFEQPIADLEAKIQELHTASMGPSINVDTEVRALENKLRLRTAQIFRNLSAWQISQLARHPRRPYTLDYISVVCDEFQELAGDRALADDKAIVGGLARIGHRPVMLIGHQKGRDNKERLMRNFGMPKPEGYRKALRLMKLAERFGLPLLTFIDTMGAWPGIDAEERNQSEAIATNLIEMAELKIPVICTVIGEGGSGGALAIGIGDRTLMLEYSTYSVITPEGCASILWKDAAKASDAAEQLNLTARRLKEFGLIDKVIREPIGGAHRNPQQMANRLKAVLLNELEALDKVPLVTLLNQRHKRLRTYGAYENHEGHHHHHH | not soluble
MSLNSAAQAQSSDPVVIGCPAPLTGIVAADGIEFQRGIQMAADEINAVGGILGRPIELVFADTQSKGVDVVIQSAQRLIDRDNASALIAGYNLENGTALHDVAADAGVIAMHANTVAVHDEMVKSDPDRYWGTFQYDPPETLYGGGFLKFLKDIEDNGEFSRPNNKIAIITGPGIYSVNIANAIRDGAGEYGYDVSLFETVAIPVSDWGPTLAKLRADPPAVIVVTHFYPQDQALFMNQFMTDPTNSLVYLQYGASLAAFRDIAGDNSVGVTYATVLGTLQDEMGDAFAKAYKERYGDLSSTASGCQTYSALYAYSIAAALAGGPGAPYDDVQNKAVADRLRSLIFRGPVGTMRFHADTQSAWSYPTETNDPSLGMPHIFSQIFDKAEDGVLIAPAPYKKAGFKMPPWMKGEGHHHHHH | soluble
MSLNSLKHPKVRDTRDMWDIREELTSEQKKQEKLLAEINKYDKFVNSYSQTKEMTKETALNNTLQSLKKTAGMTDITGSGIVITISPLFSESLTGEPIENPPPDLLKKLINELNSYGAEHISINERRVVNHTVIRDINGTTKIDGYALDDYPLTVKVLAKDPDMLHSRVKGSGLEDLFASENLALKAGKSESKLTLKAYDRPLDVQQLKLLKDEGHHHHHH | soluble
MSLNTAMAINKPKKVNKVMNYKSCFDIIGPIMIGPSSSHTAGALAIGLAARKLFGGTPEKIVIKYYESFADTHKGHGTDFAIIGGILGLAADDANVTQSIELAEEQGIEIQFLEMSEESPVKHANTACVTLSDATHEIHLTGISVGGGTIEVKYIELDGFNVQLHGPLPILLVINQEEQAMQAFKDTLQKNNIQVNAVSRYVEGNQILFIFDLDSAPISSVKEQLFSLDDTSKIILLEGGSHHHHHH | soluble
